Laboratory results published in the supplement of paper PMC10567573.

B1: SOAT1 (parent)
chain: GVLILFLTFFAFLHCWLNAFAEML
B2: TIA1 (parent)
chain: TYECRCIGEEKEMWNFGEKYARF

Variants of: B1
Assay: protein stability index of a GFP-peptide fusion (GPS, HEK-293T) (PSI 1-6); higher = more stable
Conditions: c terminus: a fixed tail appended
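Note: lentivirally expressed fusions sorted by FACS into six bins by GFP to DsRed ratio, PSI derived from sequencing read proportions per bin multiplied by bin number.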

Protein stability index of substitutions, site by site:
L3: D 2.13; W 3.13; P 3.1; F 2.69; G 2.85; K 1.94; E 2.74; C 3.65; Y 2.94; V 3.82; S 3.06; T 3.86; A 2.52; M 3.1; H 2.34; R 2.98
L7: V 2.56; W 4.58; M 2.38; P 2.68; G 2.95; A 3.84; E 3.09; C 1.91; N 3.81; F 1.85; D 2.11; Q 2.92; I 2.4; R 3.36; K 3.37
G1: C 2.93; V 3.18; M 2.94; Q 2.35; E 3.49; N 3.26; S 4.28; R 4.47; W 1.61; A 3.39; I 3.7; F 2.2; Y 2.49; P 3.53; K 2.23; T 3.35; H 3.67
F6: R 3.83; A 3.95; Q 3.85; G 1.72; S 2.73; V 3.25; P 2.63; Y 3.06; M 1.35; I 2.63; H 2.63; T 2.02; D 1.78
I4: Q 4.98; C 2.42; R 3.74; L 2.76; T 3.27; K 1.43; Y 3.33; D 1.73; V 2.92; P 2.26; H 1.85; S 2.66; A 2.03; M 3.03; F 1.75; N 3.78; W 2.43; E 2.23; G 4.32
V2: E 2.17; W 2.95; R 3.5; F 2.32; N 1.42; T 2.72; L 1.03; C 2.05; I 2.62; P 1.74; Y 2.31; K 2.31; S 1.98; M 2.26; A 2.01; Q 2.56; H 2.35; D 2.14
L5: D 4.32; V 1.91; R 2.57; K 2.87; Y 3.59; Q 3.75; N 3.7; C 2.84; M 1.72; A 2.42; T 2.34; I 2.23; H 3.32; G 2.13; E 3.38; W 2.17
F9: S 1.94; W 3.04; M 3.56; E 3.8; A 1.36; C 3.31; P 3.94; V 3.43; I 1.34; K 3.13; G 4.01; T 2.68; Y 2.83; H 4.54; Q 2.33; D 3.34; N 2.46
F10: N 3.82; V 2.75; I 2.54; R 3.84; M 1.67; E 2.27; C 2.63; K 2.35; A 3.62; L 2.24; H 2.17; T 3.52; S 2.2; Y 3.58; Q 4.33
T8: A 3.88; Q 1.69; D 2.71; L 2.04; P 3.34; S 3.41; V 2.33; N 2.38; I 2.42; F 3.81; E 2.8; Y 3.57; M 2.6; G 2.61; C 1.01; W 1.47; H 3.09
A11: C 1.84

Variants of: B2
Assay: as above
Conditions: c terminus: native

Protein stability index: each site, then its substitutions
Y20: K 3.52; H 3.71; F 2.86; P 1.11; A 2.58; L 1.54; D 3.16; V 3.04; N 2.26; Q 4; T 2.61; M 3.19; W 2.31; G 3.89; S 3.24; I 1.7; E 3.6; C 1.81
A21: Y 1.89; W 2.42; P 3.79; F 2.02; H 3.06; R 2.71; V 2.37; C 1.89; G 2.11; D 3.1; L 2.19; I 2.72; M 1.99; T 1.44; S 1.97; E 3.16; K 2.8; Q 2.04
F23: E 3.42; C 1.61; Y 2.18; D 3.5; W 2.64; R 1.52; K 3.29; L 1.29; G 2.11; P 2.69; Q 1.48; M 2.54; I 1.59; A 3.29; N 1.87; H 1.83; S 2.2; T 1.87
K19: D 3.32; T 2.06; P 3.04; F 2.16; M 1.29; L 1.59; E 3.18; G 2.51; A 1.65; R 2.44; I 1.62; V 1.76; S 2.27; Y 4.2; C 1.85; Q 2.41
W14: M 2.27; V 2.34; S 2.98; Y 2.65; P 2.31; N 2.1; K 1.6; T 2.22; L 1.64; Q 2.24; I 2.28
G17: R 2.1; M 1.86; E 2.16; F 1.81; L 2.35; P 2.15; H 2; V 2.03; N 3.29; C 1.75; Q 2.1; I 1.16; K 1.98; S 1.72; W 2.2; Y 1.7; D 3.11; A 2.27; T 2.89
R22: D 3.77; N 3.1; W 1.6; M 1.51; A 1.79; L 1.01; E 3.2; H 2.82; C 1.36; P 1.92; S 2.29; G 2.63; Q 2.92; Y 1.81; T 2.49; K 3.59; V 2.84; F 2.23
F16: Y 2.2; P 1.91; H 2.26; M 3; S 2.66; W 1.77; D 2.78; A 2.43; T 3; G 2.29; R 2.14; V 2.45; K 2.44; I 1.57; C 2.42; N 1.85; L 1.74; E 2.9
E18: F 2.24; I 2.3; H 2.97; W 3.12; P 1.65; T 1.67; S 1.97; L 1.94; A 1.27; Y 1.89; K 2.49; N 1.79; C 2.41; V 3; M 1.81; Q 1.8; D 2.22
N15: I 2.02; H 2.33; E 2.37; M 1.43; G 2; T 1.92; C 1.96; S 2.13; Y 1.56; W 2.77; V 2.3; F 2.46; Q 1.42; K 1.86; P 2.25; D 2.04; L 2.37
